Consider 19 sequences from the DeepSol protein solubility set.

A short description of this data set: soluble on expression in E. coli; label from the status in PepcDB or PDB records.
For “MPLSTSDNIAAVIVTHKRVELLRASLEVVAAQTHPVKWIIVVDNGCEDAVRDLLHSVAGDRGIYLPSHTNLGGAGGFAYGFLTALALGADAIWCADDDGRPEGPQVLATLIDAAVTHQLDEVSPVVCNMDDPNRLAFPLRRGLEWRRYRSELIDPNNPSDTLLPGIASLFNGALISAAAMERIGVPDLRLFIRGDEVEYHRRLVRSGLNFGTCLTTAYLHPDGSDEFKPILGGRMHTQYPASDAKRYFTYRNRGYLMNQPGMRRLLPQEYARFAWFFLIQRRDPRGFLEWFKLHQLGRSEKFERPLEHHHHHH”, the “soluble on expression in E. coli” value is “not soluble”. For “MAHHHHHHMVTFRCDCLHNEAEGALCRWKGKWHPANCTNTPVLLIGKGQPQGYFKLKLKVYAIFHGNGHRLHTLNCTDEDSSEDSLNATTCSDSDWRSITQQVPTEETVEQSAASEQGPSDTTKGSGSDDEETASSAPKSEGEEQEASGEGEETPKEDQQSPGEKRGTAGEKRGASGKKDGAGGEGLTRKEPEKGGATQGGKHTHPRGESSPEKGTVNDHQRDAAEDGTTTNGKQDADPGREEPVRGRDDTVAAGAGIVSNTGRIDRKPENKKGNNVRYGAIQNLLVAIVCFITG” the value was “not soluble”; for “MGSDKIHHHHHHGNSKSRNDRTETVDKEVIKAPEFDADSAYQYIQVQADFGPRVPNTQAHKECGEYLAGQLEKFGAKVYNQYADLIAYDGTILKSRNIIGAYKPESKKRILLCAHWDSRPYADNDPDPKNHHTPILGVNDGASGVGVLLEIARQIQKEQPALGIDIVFFDSEDYGIPEFYDGKYKQDTWCLGSQYWARTPHVQNYNARYGILLDMVGGKDATFYYEGYSARTARSEMKKIWKKAHELGYGKYFVKEDGGETVDDHIYVNKLARIPCVDIINYDAGNPQSSFGSFWHTVNDTMENIDRNTLKAVGQTVMDVIYNEK”, “not soluble”. As to “SLNPLDSFKSQVEANVTGLGADKDIQALSRIWSRETNRNGYTYNYSWLGRPIIQYPQDIMAMQELIWSIQPDLIIETGIAHGGSLIFSASMLELNAISGGPQDAEVLGIDIDIRQHNREAIEAHPMVKRISMIQGSSIAPEIIEQVKAKAEGKQKILVCLDSNHTHDHVLAELEAYAPLTSVGSYCVVFDTVVEDLPDEMFGDRPWGVGNNPKTAVWEYLKTHPEFEIDKSIQHKLLITVAPDGYLKRLG”, the “soluble on expression in E. coli” value is listed as “soluble”.

As for “MSLTTRIGFLLFPGFPMACLTSIIEPLRAANEISMSDSFAWRLVSELPRKVVSSAGITFEPDASLETVSALDYLVLLSAPVARFENPRTASLLRRIERHGTVLGAISGGVFPLVRSGVVRDERLSVHWCYEAAFAAEFPEIQRSNEVIEISPRLLTASGAAAAFDLALSLIEAALGANVANEVACWFQHPIMRKAGVKQALPIHQAADAEGEMSPLVARAIEIFAENLTTPASIAAIAERLHITPRHLERCFKQATGQNPTGYFRHLRMQAARQIVMYTNDSIAEVATAVGYANAKPLVRHYRDTFGLTPQQDRKRINLYRVEGNEGHHHHHH”, the “soluble on expression in E. coli” value was “not soluble”. “MGSDKIHHHHHHMTLLIVGATGTLGRQVARRAIDEGYKVRCLVRSPKRAAFLKEWGAELVRGDLCQPQTLAEALEGVTAVIDAATSRATDSLTIKQVDWEGQIALIQAAKAASVERFIFFSIIDADKYPEVPLMEIKRCTELFLAESGINYTVLRLAGFMQGLIGQYGIPILEGQPVWVTGASSPVAYMDTLDIAKFAVRALSVPETEKQAFPVVGTRAWSAEEIINLCERLSGKEAKVRRMPINLLRAVRGLAKFFQWGWNIADRLAFTEVLASGRPLNASMDEVYTVFGLEKEQSTTLESYLQEYFSRILKKLKQLDYEKTKTKKQKDKKTPFKKVNS”: the “soluble on expression in E. coli” value is given as “not soluble”. Regarding “MSANVDLNQRPDYDAVLQDIADYVLDYRIDSTEALDTARNCLMDTLGCGLLALRFPECTKHLGPLVEGTLVPHGARVPGTSFRLDPVKAAWDIGCIVRWLDYNDTWLAAEWGHPSDNLGGILAVADHLSQKRLANGEAPLSMRQVLEAMIMAHEIQGVIALENSFNRVGLDHVLLVKVASTAVCAKLMGADREQLLAALSHAFVDGQALRTYRHAPNAGSRKSWAAGDATSRGVRLADIALRGEMGIPGVLSAPQWGFYDVLFSHTSKDLATKPEDKRRFSFPQGYGSYVMENVLFKISFPAEFHAQTAAEAAVRLHPLVKDRLQRISRIVITTHESAIRIISKVGPLANPADRDHCLQYMTAVPLIFGDLVAEHYEDAFHAAHPLIDRLREKMEIVEEPRYSREYLEADKRSIANAVEVFFDDGSSTGQVAVEYPLGHRRRRAEGIPLLQEKFKANLATRFPPQRCQRIFDLCSHQASLEATPVNRFMDLLAI”, the “soluble on expression in E. coli” value was “not soluble”. On to “MIVPPPEELTGARVLAYALIDESTPYSGRITLYVDGELIGPVPRLVIALNNYGPDDYLLLYCNENWDVIGAGGHASLVAAKESANIAYPGVASRWQDVA”, for which the “soluble on expression in E. coli” value is listed as “not soluble”. Take “MSLIRGVIGYTITPFTADGTLDLDALGTSIDSLIAGGVHAIAPLGSTGEGAYLSDSEWETVVRFSQARIAGRVPSVVSVSDLTTARTVQRARLAQACGATAVMVLPISYWKLTEAEVVAHYKAVGAAIDIPIMLYNNPGTSGTDLSVELILRILGEVPNVTMVKESTGDIQRMHRLFTATDGQVAFYNGCNPLTLEALVAGATGWCTAAPNLIPALNLALWDAVQQGDLAEARALFYRQYELLEYITRRGLPTTIKAGLKMLGQDVGAPRLPLQPLDAQGSNHLKSLLEGHHHHHH”: the “soluble on expression in E. coli” value is “soluble”. On to “MPSEPGKNMIQHAGLGYRRDLAEDFLSLSENSPICFIEAAPENWLKMGGWARKQFDRVAERLPLALHGLSMSLGGQAPLDTDLIDGIKEMMRRYDCTFFSDHLSYCHDGGHLYDLLPLPFTEEMVHHTARRIREVQDRLGCRIAVENTSYYLHSPLAEMNEVEFLNAVAREADCGIHLDVNNIYVNAVNHGLLSPEAFLENVDAERVCYIHIAGHDVETPELLIDTHGAAVLPTVWDLLELAYAKLPTIPPTLLERDFNFPPFSELEAEVAKIADYQTRAGKECRRAA”, for which the “soluble on expression in E. coli” value is listed as “not soluble”. With “MQEVAMSSQEASKMLRTYNIAWWGNNYYDVNELGHISVCPDPDVPEARVDLAQLVKTREAQGQRLPALFCFPQILQHRLRSINAAFKRARESYGYNGDYFLVYPIKVNQHRRVIESLIHSGEPLGLEAGSKAELMAVLAHAGMTRSVIVCNGYKDREYIRLALIGEKMGHKVYLVIEKMSEIAIVLDEAERLNVVPRLGVRARLASQGSGKWQSSGGEKSKFGLAATQVLQLVETLREAGRLDSLQLLHFHLGSQMANIRDIATGVRESARFYVELHKLGVNIQCFDVGGGLGVDYEGTRSQSDCSVNYGLNEYANNIIWAIGDACEENGLPHPTVITESGRAVTAHHTVLVSNIIGVERNEYTVPTAPAEDAPRALQSMWETWQEMHEPGTRRSLREWLHDSQMDLHDIHIGYSSGIFSLQERAWAEQLYLSMCHEVQKQLDPQNRAHRPIIDELQERMADKMYVNFSLFQSMPDAWGIDQLFPVLPLEGLDQVPERRAVLLDITCDSDGAIDHYIDGDGIATTMPMPEYDPENPPMLGFFMVGAYQEILGNMHNLFGDTEAVDVFVFPDGSVEVELSDEGDTVADMLQYVQLDPKTLLTQFRDQVKKTDLDAELQQQFLEEFEAGLYGYTYLEDELEHHHHHH”, the “soluble on expression in E. coli” value is “not soluble”. Regarding “MGSDKIHHHHHHMESMLKKICQDPVLQKDKDFLLFLTSDDFSSESKKRAFLTGSGAINDSNDLSEVRISEIQLLGAEDAAEVLKNGGIDAESHKGFMSISFSSLPKYNEADEFFIEKKQKIDELEDNLKKLSKSLEMVDTSRNTLAASTEEFSSMVETLASLNVSEPNSELLNNFADVHKSIKSSLERSSLQETLTMGVMLDDYIRSLASVKAIFNQRSKLGYFLVVIENDMNKKHSQLGKLGQNIHSEKFREMRKEFQTLERRYNLTKKQWQAVGDKIKDEFQGFSTDKIREFRNGMEISLEAAIESQKECIELWETFYQTNL”, the “soluble on expression in E. coli” value is reported as “not soluble”. In the case of “SNAMDLQLSKRLQKVANYVPKGARLLDVGSDHAYLPIFLLQMGYCDFAIAGEVVNGPYQSALKNVSEHGLTSKIDVRLANGLSAFEEADNIDTITICGMGGRLIADILNNDIDKLQHVKTLVLQPNNREDDLRKWLAANDFEIVAEDILTENDKRYEILVVKHGHMNLTAKELRFGPFLLSNNTTVFKEKWQNELNKLTFALNSIPNSKMEERAILEDKIQDIKEVLDES”, the “soluble on expression in E. coli” value was “soluble”. Consider “MSLKLVFYGAGNMAHAIFTGIVNSKVIDSNDIYLTNRSNEVALKEYAEKLGVNYSYDDEALLKAADYVFLGTKPYDFESLAERIKPFITDKNKFISIMAGLPISYIREKLEADNPIARIMPNTNAHVGHSVTGISFSSNFGPNSKDEVDELINAFGSAIEVPEDNLHQVTAITGSGPAFLYHVFEQYVTAGTRLGLEKAQVEESIRNLIIGTSKMIERSELSMEQLRKNITSKGGTTQAGLNALSQHDLESVFEDCLRAAVDRSVELSSQDEGHHHHHH”, for which the “soluble on expression in E. coli” value is on record as “soluble”.

As to “MKLPYSITVTYDHRTSPHIPFSSHIGKQNSFFSFLSRKKSMYHHITFCSVPATDGRARGQRPTGHFHLFFVVNRLLPRTRSTTKPSCSFAQPVTPRTREGAGVRGHRRRRRGSLSLIPWKTSNDKQKDDKRSLFCYMREIIAVGNFSKYMLLEHHHHHH”, the “soluble on expression in E. coli” value is on record as “not soluble”. In the case of “MNDIAHNLAQVRDKISAAATRCGRSPEEITLLAVSKTKPASAIAEAIDAGQRQFGENYVQEGVDKIRHFQELGVTGLEWHFIGPLQSNKSRLVAEHFDWCHTIDRLRIATRLNDQRPAELPPLNVLIQINISDENSKSGIQLAELDELAAAVAELPRLRLRGLMAIPAPESEYVRQFEVARQMAVAFAGLKTRYPHIDTLSLGMSDDMEAAIAAGSTMVRIGTAIFGARDYSKK”, the “soluble on expression in E. coli” value is on record as “soluble”. On to “MTLYPKLILDALATVRYPGTGKNLLEAEMVADNLRIDGMAVSFSLIFEKPTDPFMKSMLKAAETAIHTYVSPDVQVTITTESKQAARPEVGKLLPQVKNIIGISSGKGGVGKSTVSANLAVALAKLGYKVGLLDADIFGPSMPKMFQVEDARPYAEKINGRDLIIPVEKYGVKLLSIGFFVDPDQATLWRGGMASNALKQLIGDADWGDLDYFLIDLPPGTSDIHLTVVQTLAMTGAIVVSTPQAVALADARKGINMFTNDKVNVPILGLVENMAWFTPAELPENKYYIFGKEGAKKLAEEMNVPLLGQIPIVQSICEGGDNGTPVALDEDTVTGRAFLSLAASVVRQVDRRNVEMAPTKIVEMH”, for which the “soluble on expression in E. coli” value is given as “not soluble”. The result for “MVARNDNLKPFSERSVDEARELGRKGGKASGEVRRKKADLKRAISIVLSSEVPSSKMAKTLKEMGYENTNEMAMVLSMTQKAIKGDVKAASWISNIIQPAKVEHEVEMSVGVDEKRKVAEEYIRGLFNNDTGNSTEENN” reads “not soluble”; that for “MEPNPSDPVLTDRIQAIVTTEKSIDEMMKCAREIIQDLGKEKQIGKNKMEDNANNFKKLITQVENELSAQMQYLSHVCVGSSHQGSTFGVLQNSLLAQSGLSSLHSELFQIVRYLDPTSDEPQTTEEDEEDGSDDLNEDGADGAPSSTVTSSTTDGSGGGDDAASSSAPRSQEESGRQMTDDDDDMEQ”, “not soluble”.
